B1: 3'BC1-60 RNA, annealed (structured_RNA)
RNA: AAAAAAGACAAAAUAACAAAAAGACCAAAAAAAAAACAAGGUAACUGGCACACACAACCUUU
B2: 5'BC1-75 RNA, annealed (structured_RNA)
RNA: GGGGUUGGGGAUUUAGCUCAGUGGUAGAGCGCUUGCCUAGCAAGCGCAAGGCCCUGGGUUCGGUCCUCAGCUCU

Columns and labels:
FMRP [1] = target: T1, FMRP (UniProt Q06787 1-632); assay: biotin-RNA affinity capture; 2 uM RNA; 50 mM Tris-HCl pH 7.4, 2 mM MgCl2, 150 mM KCl, 1 mM EDTA, 1 mM DTT (Schaeffer buffer without tRNA, supplemented with 125 mM NaCl); SoftLink avidin resin; temper
FMRP [2] = target: T1, FMRP; assay: biotin-RNA affinity capture; 2 uM RNA; slightly less than full-length BC1, P=.15; 50 mM Tris-HCl pH 7.4, 2 mM MgCl2, 150 mM KCl, 1 mM EDTA, 1 mM DTT (Schaeffer buffer without tRNA, supplemented with 125 mM NaCl); SoftLink avidin resin; temper

Row | Binder | binding result (FMRP [1]) | binding result (FMRP [2])
1 | B1 | no binding | –
2 | B2 | – | binds

From paper PMC3136132
